A word on the Kd: it is the equilibrium constant for the complex coming apart. Low values mean tighter binding, high ones weaker binding.

This assay has as its target HH-120 (IgM-like hACE2-Fc fusion protein) (UniProt Q9BYF1). In words: SPR.
In turn, “S trimer protein of the SARS-CoV-2 Omicron variant (from UniProt P0DTC2) (natural protein)” showed a Kd of 1 nM.

The substance “S trimer protein of the SARS-CoV-2 Alpha variant (from UniProt P0DTC2) (natural protein)” came in with a Kd of 1 nM.

“S trimer protein of the SARS-CoV-2 Delta variant (from UniProt P0DTC2) (natural protein)”: the dissociation constant Kd amounted to 1 nM.

Turning to “S trimer protein of the SARS-CoV-2 Beta variant (from UniProt P0DTC2) (natural protein)”, the Kd stood at 1 nM.
